Laboratory results from the Human Domainome abundance scans (Beltran et al. 2025).

B1: MEF2-activating motif and SAP domain-containing transcriptional regulator, residues 170 to 204; numbered along this chain, Q6ZN01 (parent)
chain: LKLEELTVSELRQQLRLRGLPVSGTKSMLLERMRG

Variants of: B1
Test: abundance fitness (aPCA) (normalised: wild type 0, dead -1); higher = more abundant; growth selection in yeast, the domain comes from the species named
Conditions: Homo sapiens

Abundance fitness, by site and new letter:
T25: R -0.497, C -0.43, M -0.517, K -0.204, D 0.215, Q -0.441, P -0.29, L -0.581, H -0.295, S 0.004, V -0.435, F -0.608, E -0.051, G -0.27
S9: W -0.142, N 0.182, L -0.275, E 0.181, Q 0.164, V -0.121, R -0.09, P -0.291, G -0.111, K 0.084, Y -0.345, M 0.122
Q14: M 0.023, K -0.175, N -0.441, W -0.141, F -0.401, T -0.45, H -0.192, R -0.174, P -0.863, Y -0.326, C -0.313, V -0.222, A 0.135, D -0.551, G -0.35
E31: Y -0.124, W -0.755, N -0.238, V -1.16, Q -0.227, C -0.745, L -0.503, T -0.348, M -0.343, S -0.27, P -0.992, G -0.279
R12: N -0.961, P -0.602, M -0.32, S -0.29, K -0.072, T -0.199, V -0.304, Q -0.016, C -0.387, L -0.523, D -0.488, G -0.593, A -0.361, Y -0.495
R18: N -0.299, M 0.126, T -0.239, E -0.14, K -0.119, S -0.206, W -0.147, A -0.009, L 0.074, G -0.523, P -0.336, Q 0.03, V -0.128
S27: P -0.19, E 0.081, L -0.281, F -1.15, Q 0.38, C -0.455, R -0.154, H -0.246, Y -0.725, T -0.108, D 0.069, G -0.108, W -0.23, V -0.349, A -0.1
L11: C -1.03, H -0.811, E -0.864, K -0.623, R -0.565, G -0.657, Q -0.568, P -0.64, V -0.59, M -0.331, W -0.897, A -0.678, F -1.08, I -0.206, S -0.542, Y -0.497
L15: C 0.149, M -0.185, A 0.11, V -0.37, E -0.38, S -0.215, R -0.712, N -0.308, Y -0.661, W -1, P -0.6, Q -0.339, D -0.599, G -0.391, K -0.361, T -0.43
K26: S -0.697, E -0.379, L -0.159, G -0.78, D -0.467, A -0.057, R 0.048, C -0.761, Q -0.221, W -0.361, T -0.42, M -0.725
L17: P -0.988, G -0.238, M -0.087, T -0.081, F -0.271, R -0.155, V -0.054, Q -0.032, E -0.089, S -0.249, C -0.102, W -0.307
V22: T 0.152, Y 0.298, P -0.701, W -0.595, C -0.255, R -0.375, E 0.025, N -0.407, D -0.046, I -0.262, L -0.209, S -0.168, A 0.052, Q -0.108
E10: G -0.509, D -0.402, T -0.782, M -0.608, S -0.454, C -0.678, K -0.354, I -0.781, A -0.425, F -0.895, Q -0.216, R -0.552, W -0.728
L30: G -0.493, W -0.456, T -0.257, R -0.283, D -0.376, S -0.601, Y -0.915, I 0.394, C -0.197, E -0.251, P -0.507, K -0.23, Q 0.004, A -0.356, M -0.179, V -0.099
M28: P -0.973, S -0.36, F -0.616, I -0.015, G -0.512, L -0.106, Q 0.067, T -0.081, C -0.393, V 0.05, A 0.022, N -0.402, W -0.839, H -0.003
Q13: A -0.285, K 0.015, R -0.23, F -0.101, V -0.11, E -0.1, L -0.174, I -0.036, S -0.203, W -0.28, G -0.251, M -0.134, H 0.054, C -0.163, D -0.075
L29: R -0.616, V -0.842, Y -0.469, I -0.749, E -0.22, K -0.31, Q -0.486, W -0.594, T -0.297, F -0.589, N -0.683, M -0.338, P -0.909, D -0.51, S -0.545, G -0.455
R32: Q -0.232, C -0.611, N -0.02, L -0.485, E -0.219, M -0.369, K -0.545, S -0.483, A -0.459, I -0.507, G -0.326
P21: F -1.08, S -0.129, Y -0.909, A -0.184, W -0.854, K -0.494, T -0.235, D -0.094, G -0.297, E -0.036, R -0.39, V -0.335, H -0.727, Q -0.317, N -0.303, C -0.347, M -0.655
R16: S -0.095, P -0.96, A 0.04, Q -0.207, E 0.001, L -0.027, Y -0.613, F -0.086, C -0.107, K 0.284, G -0.081, M -0.07, D -0.331, W -0.129
L20: R -0.914, F -0.329, W -0.626, K -0.555, E -0.192, Y -0.284, S -0.731, Q -0.587, G -0.669, T -0.879, V -0.575, M -0.005, I -0.646, A -0.296
S23: W -0.883, K -0.198, M -0.222, P -0.838, L -0.349, V -0.16, C -0.274, A -0.103, Q -0.147, Y -0.106, G -0.007, R -0.384, D 0.233, E 0.025, N -0.02
G19: K -0.227, V -1.02, W -0.863, R -0.337, F -0.639, A -0.746, P -0.558, S -0.34, T -0.683, E -0.261, C -0.559, Q -0.402, I -0.417, H -0.211
G24: M -0.768, L -1.01, R -0.867, E -0.335, V -0.828, S -0.817, P -0.829, Q -0.935, K -1.25, W -0.41
